Experimental data as given in publication doi:10.1101/2022.12.21.521430 (bioRxiv, 2022).

Target: Gallus gallus TRPV4 isolated ankyrin repeat domain (residues 135-382) (Gallus gallus, UniProt A0A1D5PXA5 135-382)
Test: cross-linking

Sequence of Gallus gallus TRPV4 isolated ankyrin repeat domain (residues 135-382) (A0A1D5PXA5 135-382): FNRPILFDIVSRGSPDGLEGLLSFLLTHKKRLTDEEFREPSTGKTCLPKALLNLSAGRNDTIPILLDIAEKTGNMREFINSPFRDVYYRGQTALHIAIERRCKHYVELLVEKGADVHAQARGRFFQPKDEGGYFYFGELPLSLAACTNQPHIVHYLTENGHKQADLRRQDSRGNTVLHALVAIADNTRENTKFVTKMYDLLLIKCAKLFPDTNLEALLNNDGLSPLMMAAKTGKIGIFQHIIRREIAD

binding result: binds
B1: Gallus gallus TRPV4 isolated intrinsically disordered region (residues 2-134) (domain or fragment, UniProt A0A1D5PXA5 2-134, looked up)
chain: ADPEDPRDAGDVLGDDSFPLSSLANLFEVEDTPSPAEPSRGPPGAVDGKQNLRMKFHGAFRKGPPKPMELLESTIYESSVVPAPKKAPMDSLFDYGTYRQHPSENKRWRRRVVEKPVAGTKGPAPNPPPILKV
